Changes are numbered by the printed parent chain. In names and notes the source's numbering stands.
B1: Xpress (Xpr)-tagged human USP15 wild type (WT) (protein)
chain: AEGGAADLDTQRSDIATLLKTSLRKGDTWYLVDSRWFKQWKKYVGFDSWDKYQMGDQNVYPGPIDNSGLLKDGDAQSLKEHLIDELDYILLPTEGWNKLVSWYTLMEGQEPIARKVVEQGMFVKHCKVEVYLTELKLCENGNMNNVVTRRFSKADTIDTIEKEIRKIFSIPDEKETRLWNKYMSNTFEPLNKPDSTIQDAGLYQGQVLVIEQKNEDGTWPRGPSTPNVKNSNYCLPSYTAYKNYDYSEPGRNNEQPGLCGLSNLGNTCFMNSAIQCLSNTPPLTEYFLNDKYQEELNFDNPLGMRGEIAKSYAELIKQMWSGKFSYVTPRAFKTQVGRFAPQFSGYQQQDCQELLAFLLDGLHEDLNRIRKKPYIQLKDADGRPDKVVAEEAWENHLKRNDSIIVDIFHGLFKSTLVCPECAKISVTFDPFCYLTLPLPMKKERTLEVYLVRMDPLTKPMQYKVVVPKIGNILDLCTALSALSGIPADKMIVTDIYNHRFHRIFAMDENLSSIMERDDIYVFEININRTEDTEHVIIPVCLREKFRHSSYTHHTGSSLFGQPFLMAVPRNNTEDKLYNLLLLRMCRYVKISTETEETEGSLHCCKDQNINGNGPNGIHEEGSPSEMETDEPDDESSQDQELPSENENSQSEDSVGGDNDSENGLCTEDTCKGQLTGHKKRLFTFQFNNLGNTDINYIKDDTRHIRFDDRQLRLDERSFLALDWDPDLKKRYFDENAAEDFEKHESVEYKPPKKPFVKLKDCIELFTTKEKLGAEDPWYCPNCKEHQQATKKLDLWSLPPVLVVHLKRFSYSRYMRDKLDTLVDFPINDLDMSEFLINPNAGPCRYNLIAVSNHYGGMGGGHYTAFAKNKDDGKWYYFDDSSVSTASEDQIVSKAAYVLFYQRQDTFSGTGFFPLDRETKGASAATGIPLESDEDSNDNDNDIENENCMHTN
B2: Xpress (Xpr)-tagged human USP15 mutant (L720R) (protein)
chain: B1 chain with L719R

Target: FLAG-tagged TRIM25, Q14258
Sequence (Q14258 whole entry): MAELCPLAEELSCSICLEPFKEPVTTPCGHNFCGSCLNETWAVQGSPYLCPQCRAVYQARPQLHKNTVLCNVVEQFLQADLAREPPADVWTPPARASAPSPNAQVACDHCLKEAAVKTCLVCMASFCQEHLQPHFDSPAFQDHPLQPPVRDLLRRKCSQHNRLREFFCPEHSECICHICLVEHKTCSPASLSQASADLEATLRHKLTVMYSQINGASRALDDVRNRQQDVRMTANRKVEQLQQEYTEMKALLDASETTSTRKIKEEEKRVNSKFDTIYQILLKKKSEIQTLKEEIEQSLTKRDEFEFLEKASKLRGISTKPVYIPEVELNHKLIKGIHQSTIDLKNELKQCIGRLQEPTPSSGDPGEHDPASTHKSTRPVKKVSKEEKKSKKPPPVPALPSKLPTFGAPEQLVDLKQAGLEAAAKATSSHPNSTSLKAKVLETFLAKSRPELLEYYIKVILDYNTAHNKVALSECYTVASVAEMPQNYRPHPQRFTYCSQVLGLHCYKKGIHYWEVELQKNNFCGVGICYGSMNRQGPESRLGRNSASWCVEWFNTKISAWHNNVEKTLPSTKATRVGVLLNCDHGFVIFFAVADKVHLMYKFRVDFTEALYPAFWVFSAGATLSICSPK

Protein	deubiquitination of TRIM25 (anti-FLAG immunoprecipitation, immunoblot with anti-ubiquitin and anti-TRIM25 antibodies)	deubiquitinase activity towards TRIM25 (anti-FLAG immunoprecipitation, immunoblot with anti-ubiquitin and anti-TRIM25 antibodies)
B1	we observed that TRIM25 is a target for deubiquitination by USP15	
B2		we observed a reduced deubiquitinase activity in the L749R variant (the corresponding human L720R isoform was tested), when compared to WT
